Source: US20210145828A1 (RUTGERS THE STATE UNIVERSITY OF NEW JERSEY, published 2021)

Biological target: T1, Gα12 (human, UniProt Q03113 1-381)
T1 sequence: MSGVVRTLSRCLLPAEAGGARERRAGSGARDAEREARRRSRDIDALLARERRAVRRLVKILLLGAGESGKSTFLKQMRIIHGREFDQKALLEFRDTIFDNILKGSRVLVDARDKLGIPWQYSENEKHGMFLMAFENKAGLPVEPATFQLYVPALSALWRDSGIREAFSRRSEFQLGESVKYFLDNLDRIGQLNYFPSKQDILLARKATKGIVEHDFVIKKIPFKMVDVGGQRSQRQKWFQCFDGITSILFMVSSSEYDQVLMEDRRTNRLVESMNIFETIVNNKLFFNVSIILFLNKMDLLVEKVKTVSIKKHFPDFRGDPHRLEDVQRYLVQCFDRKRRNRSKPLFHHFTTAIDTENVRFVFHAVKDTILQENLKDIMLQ
Experiment: cell-based or functional assay

B1: M3-muscarinic acetylcholine receptor (M3R) (receptor)
chain: not shown
SRE-luciferase reporter activity after carbachol stimulation (10 µM, 6 hours): 76
